Laboratory results from patent US20220402979A1 (AXON NEUROSCIENCE, published 2022).

Tests used:
[1] = target: T1, recombinant human mis-disordered tau protein (tau151-391/4R) (human, UniProt P10636 468-708); test: SPR, target 'Pathological Tau151-391_4R'; literature table, Jadhav et al. 2019; AVIDITY 'nd.'
T1 construct: No tags are stated; also called pathological tau

Human Tau2N4R = target: T2, Human Tau2N4R; test: SPR; literature table, Jadhav et al. 2019; AVIDITY 'nd.'
T2 construct: target in SPR of the literature rows
T2 sequence (single chain, as listed by the source limits assumed): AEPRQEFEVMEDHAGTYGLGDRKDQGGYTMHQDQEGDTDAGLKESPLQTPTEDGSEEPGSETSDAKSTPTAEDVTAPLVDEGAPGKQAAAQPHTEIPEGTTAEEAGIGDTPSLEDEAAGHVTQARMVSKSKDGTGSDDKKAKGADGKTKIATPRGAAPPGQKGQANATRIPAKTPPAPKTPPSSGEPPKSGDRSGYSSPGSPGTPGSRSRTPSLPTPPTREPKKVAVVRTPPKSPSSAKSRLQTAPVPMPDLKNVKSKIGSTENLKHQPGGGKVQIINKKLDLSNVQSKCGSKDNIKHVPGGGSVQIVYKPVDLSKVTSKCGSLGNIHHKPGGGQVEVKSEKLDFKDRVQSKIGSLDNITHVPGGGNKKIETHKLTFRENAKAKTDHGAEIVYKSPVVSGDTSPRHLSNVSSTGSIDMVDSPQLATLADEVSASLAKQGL

T1 sequence (P10636 468-708): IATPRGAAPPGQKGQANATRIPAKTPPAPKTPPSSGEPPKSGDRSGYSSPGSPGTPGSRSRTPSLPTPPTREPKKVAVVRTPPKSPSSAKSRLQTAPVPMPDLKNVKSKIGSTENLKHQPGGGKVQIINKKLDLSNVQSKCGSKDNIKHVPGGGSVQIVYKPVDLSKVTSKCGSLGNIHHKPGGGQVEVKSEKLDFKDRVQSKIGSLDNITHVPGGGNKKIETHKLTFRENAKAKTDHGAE

B1: DC8E8 (antibody, V domains shown)
VH: QVQLQQSGPELVKPGTSVKMPCKASGYIFTDYVISWVKQRTGQGLEWIGEIFPRSGSTYYNEKFKGKATLTADKSSNTAYMQLSSVTSEDSAVYFCARDYYGTSFAMDYWGQGTSVTVSS
VL: DIVMSQSPSSLAVSAGEKVTMSCKSSQSLLNSRTRKNYLAWYQQKPGQSPKLLIYWASTRESGVPDRFTGSGSGTDFTLTISSVQAEDLAVYYCKQSFYLRTFGGGTKLDIK
[1]
  Kd: 14 nM
Human Tau2N4R
  Kd: 91 nM
